Source: paper PMC6914384
Each block holds one substance with its values, some of them ahead of it.

Legend:
[1] = molecular target: p300 BRP module (bromodomain-RING-PHD), residues 1048-1282 (UniProt Q09472); assay: ITC
[2] = molecular target: pIRF3 (IRF3 1-427 phosphorylated in vitro by TBK1) (UniProt Q14653); assay: SEC
[3] = molecular target: pSTAT1ΔN (136-748), Tyr701-phosphorylated (UniProt P42224); assay: SEC
[4] = molecular target: pSTAT1ΔNC (136-713), Tyr701-phosphorylated (UniProt P42224); assay: SEC

p300 BRP module (bromodomain-RING-PHD), residues 1048-1282, sequence (Q09472 1048-1282): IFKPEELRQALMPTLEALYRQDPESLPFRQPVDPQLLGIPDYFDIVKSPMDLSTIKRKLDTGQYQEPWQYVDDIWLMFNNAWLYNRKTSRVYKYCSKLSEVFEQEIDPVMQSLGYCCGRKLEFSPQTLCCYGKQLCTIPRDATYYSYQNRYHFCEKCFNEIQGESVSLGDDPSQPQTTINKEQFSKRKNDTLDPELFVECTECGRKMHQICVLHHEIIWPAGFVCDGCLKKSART

Kd [1]: 90 µM
stoichiometry N [1]: 1.01
Substance: H4 K8acK12ac (4-24) peptide

stoichiometry N [2]: 2
Substance: pIRF3 (IRF3 1-427 phosphorylated in vitro by TBK1) (from UniProt Q14653 1-427) (natural protein)

stoichiometry N [3]: 2
Substance: pSTAT1ΔN (136-748), Tyr701-phosphorylated (from UniProt P42224 136-748) (domain or fragment)

stoichiometry N [4]: 2
Substance: pSTAT1ΔNC (136-713), Tyr701-phosphorylated (from UniProt P42224 136-713) (domain or fragment)
